Test results from patent US20240158497A1 (published 2024).

B1: MAb16636 (antibody, V domains shown)
VH: QLQLQESGPGLVKPSETLSLICTVSGGSISSNNYYWGWIRQPPGKGLEWIGNLYGSGSTYYNPSLKSRVTISVDTSKNQFSLKLSFVTAADTAVYHCARWDTNGGAFDIWGQGTMVTVSS
VL: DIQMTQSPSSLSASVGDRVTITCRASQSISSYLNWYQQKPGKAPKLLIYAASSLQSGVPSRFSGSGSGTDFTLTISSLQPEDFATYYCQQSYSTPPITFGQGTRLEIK
notes: hIgG4 isotype control used
B2: MAb16683 (antibody, V domains shown)
VH: QVQLVESGGGLVKPGGSLRLSCAASGFTFSDYYMTWIRQTPGKGLDWVSYISSSGTNKYNADSVKGRFTISRDNAKNSLYLQMNSLRAEDTAVYYCVRDPPWGMDVWGQGTTVTVSS
VL: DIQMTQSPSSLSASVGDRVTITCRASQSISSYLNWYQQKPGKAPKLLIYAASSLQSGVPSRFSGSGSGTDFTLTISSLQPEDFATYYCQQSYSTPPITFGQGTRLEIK
notes: hIgG4 isotype control used
B3: MAb16618 (antibody, V domains shown)
VH: QVQLQESGPGLVKPSETLSLTCTVSGGSISNYYWTWIRQPPGKGLEWIGHISNSGTTNYNPSLKSRVTISVDTSKNQFSLKLTSVTAADTAVYYCARLPLGIAAVDTDYYYYFGMDVWGQGTTVTVSS
VL: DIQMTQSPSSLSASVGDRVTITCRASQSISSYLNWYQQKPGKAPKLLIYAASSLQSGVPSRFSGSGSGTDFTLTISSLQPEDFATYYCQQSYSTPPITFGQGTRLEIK
notes: hIgG4 isotype control used
B4: MAb16622 (antibody, V domains shown)
VH: EVQLVESGGGVVRPGGSLRLSCTASGFTFDDYGMSWVRQAPGKGLEWVSGINWNGGRTEYADAVKGRFIISRDNAKNSLYLQMNSLRAEDTALYFCARTELRWDYWGQGTLVTVSS
VL: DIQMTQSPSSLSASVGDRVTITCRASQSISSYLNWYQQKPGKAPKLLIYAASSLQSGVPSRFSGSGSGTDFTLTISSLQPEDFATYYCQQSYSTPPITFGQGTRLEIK
notes: hIgG4 isotype control used
B5: MAb16623 (antibody, V domains shown)
VH: EVQLVESGGGLVQPGGSLRLSCAASGLTFSSYEMNWVRQAPGKGLEWVSHISSAGSTKYYADSVKGRFTISRDNAKNSLFLQMNSLRAEDTAIYYCAGYNYAYYYFGVDVWGQGTTVTVSS
VL: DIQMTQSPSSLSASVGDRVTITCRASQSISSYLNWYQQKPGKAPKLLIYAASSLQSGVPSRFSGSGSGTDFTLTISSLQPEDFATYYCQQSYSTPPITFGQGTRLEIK
notes: hIgG4 isotype control used
B6: MAb16664 (antibody, V domains shown)
VH: QVQLVQSGTEVKKPGSSVKVSCKASGGTFSTYPINWVRQAPGQGLEWMGGIIPIFGTASYAQKFQGRVAITTDESTSTAYMELNSLRSEDTAVYYCARERPNWGSNDYWGQGTLVTVSS
VL: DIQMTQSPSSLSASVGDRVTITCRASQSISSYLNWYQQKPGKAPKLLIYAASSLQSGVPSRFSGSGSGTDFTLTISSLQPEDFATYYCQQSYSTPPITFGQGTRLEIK
notes: hIgG4 isotype control used
B7: MAb16682 (antibody, V domains shown)
VH: EVQLVESGGGLVQPGGSLRLSCAASGFTFSTYWMNWVRQAPGKGLEWVANIKEDGSEKYYVDSVKGRFTISRDNAKNSLYLQMNSLRAEDTAVYYCAREGFGVVTYIWGQGTMVTVSS
VL: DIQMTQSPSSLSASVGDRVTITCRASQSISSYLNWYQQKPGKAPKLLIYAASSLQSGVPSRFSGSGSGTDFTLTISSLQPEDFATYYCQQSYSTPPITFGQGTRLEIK
notes: hIgG4 isotype control used
B8: MAb16676 (antibody, V domains shown)
VH: QVQLVQSGAEVMKPGASVKVSCRASGYTFSSYDINWVRQAPGQGLEWMGWISTATGNTNYPQKVQGRVTMTTDTSTNTAYMELRSLRSDDTAVYYCTREGNSKGWLDPWGQGTLVTVSS
VL: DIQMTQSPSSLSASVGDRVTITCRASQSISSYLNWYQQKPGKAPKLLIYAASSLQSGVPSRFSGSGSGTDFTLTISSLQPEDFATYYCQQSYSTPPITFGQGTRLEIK
notes: hIgG4 isotype control used
B9: MAb16656 (antibody, V domains shown)
VH: EVQLVESGGGLVQPGRSLRLSCAASGFTLDDFAMHWVRQAPGKGLEWVSGISWNSGNIGYADSVKGRFTISRDNARNSLYLQMNSLRAEDTALYYCTSGYYLYYAMDVWGQGTTVTVSS
VL: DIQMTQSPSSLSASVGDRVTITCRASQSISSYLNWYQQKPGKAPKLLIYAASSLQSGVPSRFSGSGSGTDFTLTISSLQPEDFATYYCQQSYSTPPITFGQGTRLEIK
notes: hIgG4 isotype control used
B10: MAb16614 (antibody, V domains shown)
VH: QVQLVESGGGVVQPGGSLRLSCAASGFTFSTYDIHWVRQAPGKGLEWVAVISFDGSNRNYGDSVKGRFTISRDNSDNTLFLEMNNLRFEDTAVYYCAKEGYGVDFQHWGQGTLVTVSS
VL: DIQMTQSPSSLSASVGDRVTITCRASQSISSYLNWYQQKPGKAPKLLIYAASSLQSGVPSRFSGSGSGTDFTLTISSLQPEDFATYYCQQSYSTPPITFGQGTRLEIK
notes: hIgG4 isotype control used
B11: MAb16637 (antibody, V domains shown)
VH: QVQLVQSGAEVKKPGASVKVSCKASGYTFTSLGISWVRQAPGQGLEWMGWISAYSGNRDYAQKFQGRVTMTTDTSTSTAYMELRSLRSDDTAVYYCARSLRFDYWGQGTLVTVSS
VL: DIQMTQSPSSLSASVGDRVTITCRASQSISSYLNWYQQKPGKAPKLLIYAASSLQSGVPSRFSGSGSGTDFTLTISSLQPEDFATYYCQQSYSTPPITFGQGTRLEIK
notes: hIgG4 isotype control used
B12: MAb16662 (antibody, V domains shown)
VH: EVQLVESGGGLVQPGGSLRLSCTASGFTFSNYAIFWVRQAPGKGLEYVSGISNNGVTKYYADSVRDRFTISRDNSRNTVSIQMDSLRTEDMAVYYCARENWGSDDGFDIWGQGTMVTVSS
VL: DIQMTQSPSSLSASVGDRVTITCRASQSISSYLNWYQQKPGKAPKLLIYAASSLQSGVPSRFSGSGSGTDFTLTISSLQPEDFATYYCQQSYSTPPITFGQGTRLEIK
notes: hIgG4 isotype control used
B13: MAb16669 (antibody, V domains shown)
VH: EVQLVESGGGLVQPGGSLRLSCAASGFTFSSYAMNWVRQAPGKGLEWVSAISGSGDSTYYTDSVKGRFTISRDNSKNTLYLQMNTLRAEDTAVYYCAKEEIVMLVGATPGWFDPWGQGTLVTVSS
VL: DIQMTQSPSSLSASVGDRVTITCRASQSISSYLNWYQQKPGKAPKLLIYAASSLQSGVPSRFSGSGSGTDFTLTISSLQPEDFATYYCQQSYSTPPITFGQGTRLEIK
notes: hIgG4 isotype control used
B14: MAb16666 (antibody, V domains shown)
VH: EVQLVESGGGLVQSGGSLRLSCAASGFTFSRYEMNWVRQAPGKGLEWVAYISNTGTTRDYSDSVKGRFTISRDNAKNSLYLQMSSLRVEDTAVYYCVREKFSGTSDWFDPWGQGTLVTVSS
VL: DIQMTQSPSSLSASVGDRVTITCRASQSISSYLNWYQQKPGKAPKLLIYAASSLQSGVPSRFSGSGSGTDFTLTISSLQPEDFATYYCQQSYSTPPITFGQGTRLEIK
notes: hIgG4 isotype control used
B15: MAb16665 (antibody, V domains shown)
VH: QVQLVESGGGVVQPGRSLRLACAASGFTFRSYGMHWVRQAPGKGLEWVAVIWYDGSNKYYTDSVKGRFTISRDNSKNTLYLQMNSLRAEDTAMYYCAIDKWATVTTYLFDYWGQGTLVTVSS
VL: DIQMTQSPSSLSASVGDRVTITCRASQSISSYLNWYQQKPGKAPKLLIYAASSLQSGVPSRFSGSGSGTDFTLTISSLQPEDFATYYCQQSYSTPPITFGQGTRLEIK
notes: hIgG4 isotype control used
B16: MAb16659 (antibody, V domains shown)
VH: QVQLVQSGPEVKKPGSSVKVSCKASGGTIDRNEITWVRQAPGQGLEWMGVIIPILGEAHYERKFQGRLTITMDESTSTAYMELSNLRSEDTAVYYCARERAARGYLDYWGQGTLVTVSS
VL: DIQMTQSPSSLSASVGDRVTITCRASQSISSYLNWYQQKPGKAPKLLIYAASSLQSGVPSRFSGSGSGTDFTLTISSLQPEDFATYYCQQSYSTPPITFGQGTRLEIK
notes: hIgG4 isotype control used
B17: MAb16673 (antibody, V domains shown)
VH: EVQLVQSGAEVKKPGESLKISCKGSGYSFTSYWIDWVRQMPGKGLEWMGIIYPDDSDTRYSPSFQGQVTMSVDKSISTAYLQWSSLKASDTAIYYCARHERGIVEAGTDYYYYYGMDVWGQGTTVTVSS
VL: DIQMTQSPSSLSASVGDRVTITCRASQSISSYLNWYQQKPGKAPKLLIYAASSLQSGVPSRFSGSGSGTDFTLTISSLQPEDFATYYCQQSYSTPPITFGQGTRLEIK
notes: hIgG4 isotype control used

Target: T1, human gp130 extracellular domain (E23-E619) with C-terminal mouse IgG2a Fc (human)
T1 construct: dimeric; also called hGP130-mFc; human GP130-mFc
T1 chain: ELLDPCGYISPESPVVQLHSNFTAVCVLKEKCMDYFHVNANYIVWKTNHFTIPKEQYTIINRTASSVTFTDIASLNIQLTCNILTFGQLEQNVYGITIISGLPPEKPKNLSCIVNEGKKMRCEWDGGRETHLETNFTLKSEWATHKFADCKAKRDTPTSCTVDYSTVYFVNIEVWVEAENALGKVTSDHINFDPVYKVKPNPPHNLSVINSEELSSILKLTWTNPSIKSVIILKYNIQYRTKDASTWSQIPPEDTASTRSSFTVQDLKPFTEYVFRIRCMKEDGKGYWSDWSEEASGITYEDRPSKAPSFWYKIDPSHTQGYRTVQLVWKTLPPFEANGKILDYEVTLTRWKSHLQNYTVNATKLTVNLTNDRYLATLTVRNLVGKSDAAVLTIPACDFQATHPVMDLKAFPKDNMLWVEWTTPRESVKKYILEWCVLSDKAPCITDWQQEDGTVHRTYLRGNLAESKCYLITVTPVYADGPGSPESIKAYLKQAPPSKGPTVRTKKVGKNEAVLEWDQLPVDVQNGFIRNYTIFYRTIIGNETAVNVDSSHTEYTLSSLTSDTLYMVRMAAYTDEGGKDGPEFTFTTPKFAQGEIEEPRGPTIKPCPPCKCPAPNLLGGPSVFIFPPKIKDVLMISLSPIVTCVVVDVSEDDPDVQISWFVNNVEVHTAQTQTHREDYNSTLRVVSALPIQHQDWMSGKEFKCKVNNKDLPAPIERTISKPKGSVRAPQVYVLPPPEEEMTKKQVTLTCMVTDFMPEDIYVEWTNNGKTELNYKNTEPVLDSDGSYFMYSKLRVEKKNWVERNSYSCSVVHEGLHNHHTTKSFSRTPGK
Assay: blocking ELISA, 2.5 nM hGP130-mFc on plate-bound CNTFR/CNTF complex
Description: The experiment was carried out using the following procedure. Human CNTFRα was coated at a concentration of […] in HBSS on a 96-well microtiter plate overnight at 4° C. […] Human CNTF at a concentration of 1 μg/ml in HBSS was added to the plate bound CNTFRα for 1 hour at room temperature. In separate dilution plates, a constant amount of 2.5 nM of human GP130-mFc protein was titrated with antibodies ranging from 3.4 pM to 200 nM in serial dilution and with no antibody present. These solutions were incubated for 1 hour at room temperature (RT) and subsequently transferred to the microtiter plates with CNTFRα/CNTF complex without washing. The plates were incubated for 2 hours at RT, washed with PBST buffer, and plate-bound hGP130-mFc was detected with an anti-mFc polyclonal antibody conjugated with horseradish peroxidase (HRP) (Jackson ImmunoResearch Inc). Samples were developed with a TMB solution (BD Biosciences, substrate A and B mixed at 1:1 ratio as per manufacturer's instructions) to produce a colorimetric reaction and then neutralized with 1M sulfuric acid before measuring absorbance at 450 nm on a Victor X5 plate reader.
Data analysis was performed using a sigmoidal dose-response model within Prism™ software (GraphPad). […] Percent blockade at maximum concentration tested was calculated as an indicator of the ability of the antibodies to block binding of GP130 to CNTFRα/CNTF on the plate as determined from the dose curve. The ratio of the reduction in signal observed in the presence of the highest tested concentration of 200 nM antibody, relative to the difference between the signal with 2.5 nM GP130 with no antibody (0% blocking) and the background signal from HRP-conjugated secondary antibody alone (100% blocking), was subtracted from 100% blocking.

Row | Binder | IC50 | Max Blocking of Antibody at 200 nM (%)
1 | B1 | 1.1 nM | 94.8%
2 | B2 |  | -22.8%
3 | B3 | 2.37 nM | 86.7%
4 | B4 |  | -84.1%
5 | B5 |  | -49.2%
6 | B6 |  | -46.5%
7 | B7 |  | -3.39%
8 | B8 |  | -15.4%
9 | B9 |  | -24.7%
10 | B10 |  | -14.8%
11 | B11 |  | -38.9%
12 | B12 | 6.51 nM | 81.9%
13 | B13 | 12.3 nM | 47.1%
14 | B14 |  | 103%
15 | B15 |  | -47.1%
16 | B16 |  | -18.8%
17 | B17 | 2.37 nM | 104%
